The target of the experiment is FLAG-tagged METTL3, wild type (UniProt Q8C3P7). Description: co-IP.
UniProt Q8C3P7, sequence (Q8C3P7 whole entry): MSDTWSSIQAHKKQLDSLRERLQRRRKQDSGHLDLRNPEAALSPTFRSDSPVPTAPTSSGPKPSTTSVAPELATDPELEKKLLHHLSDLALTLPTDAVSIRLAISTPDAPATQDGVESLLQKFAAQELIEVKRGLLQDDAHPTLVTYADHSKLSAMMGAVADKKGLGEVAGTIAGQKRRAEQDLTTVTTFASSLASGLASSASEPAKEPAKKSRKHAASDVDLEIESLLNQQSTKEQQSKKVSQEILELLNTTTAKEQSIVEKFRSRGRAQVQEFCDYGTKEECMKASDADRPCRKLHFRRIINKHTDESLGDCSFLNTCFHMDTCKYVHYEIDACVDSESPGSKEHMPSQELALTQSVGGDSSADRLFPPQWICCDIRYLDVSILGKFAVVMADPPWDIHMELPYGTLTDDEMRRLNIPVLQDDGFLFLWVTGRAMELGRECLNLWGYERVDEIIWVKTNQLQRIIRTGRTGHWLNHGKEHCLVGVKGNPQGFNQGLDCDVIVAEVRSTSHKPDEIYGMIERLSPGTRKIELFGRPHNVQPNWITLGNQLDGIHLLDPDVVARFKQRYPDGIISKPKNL

“HA-p53 25,26,53,54 (p53 L25Q,Q26S,F53Q,F54S mutant) (from UniProt P02340 1-390) (natural protein)” showed a reduction of binding against wild-type p53 of 50%.
